Source: PMC11215335 (The Journal of Biological Chemistry, 2024)

Key:
Experiment in all cases: ELISA; polyreactivity assay, second experiment (Fig. 3D): antigen coated at constant concentration (proteins 5 ug/ml, bicarbonate buffer pH 9.6); mAb, Fab or scFv serially diluted two-fold from 34 nM Fv; 1 h at 37 C; alkaline phosphatase-conjugated secondary antibody; 'saturating Ag conditions'
Settings in all cases: both partners purified
[1] = molecular target: T1, thyroglobulin (Bos taurus (assumed from catalogue item …, UniProt P01267))
T1 construct: thyroglobulin, Sigma T1001; As I recall, this catalogue item is thyroglobulin from bovine thyroid; source: bought: Sigma (T1001)

[2] = molecular target: actin (Bos taurus (muscle actin, assumed from …, UniProt P68138))
[3] = molecular target: T2, tubulin (Sus scrofa (brain tubulin, assumed from …, UniProt P02550;P02554))
T2 construct: tubulin alpha chain; Cytoskeleton T240-A; tubulin beta chain; As I recall, this catalogue item is tubulin purified from porcine brain (a mix of isotypes); source: bought: Cytoskeleton, Inc (T240-A)

Measured: binding result

T2 sequence (P02554 whole entry, looked up, chain 1 of 2): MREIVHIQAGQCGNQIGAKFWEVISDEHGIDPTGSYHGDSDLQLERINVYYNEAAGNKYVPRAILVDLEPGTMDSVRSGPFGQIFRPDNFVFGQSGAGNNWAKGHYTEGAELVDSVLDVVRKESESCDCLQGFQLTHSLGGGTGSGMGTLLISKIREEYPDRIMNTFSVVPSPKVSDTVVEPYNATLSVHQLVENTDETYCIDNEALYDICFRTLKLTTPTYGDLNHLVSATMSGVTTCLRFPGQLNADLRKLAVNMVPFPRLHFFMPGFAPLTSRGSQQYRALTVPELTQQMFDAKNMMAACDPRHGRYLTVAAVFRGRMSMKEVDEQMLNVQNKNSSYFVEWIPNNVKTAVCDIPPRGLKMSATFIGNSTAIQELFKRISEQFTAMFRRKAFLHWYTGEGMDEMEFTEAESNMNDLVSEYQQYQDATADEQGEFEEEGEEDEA
T2 sequence (P02550 whole entry, looked up, chain 2 of 2): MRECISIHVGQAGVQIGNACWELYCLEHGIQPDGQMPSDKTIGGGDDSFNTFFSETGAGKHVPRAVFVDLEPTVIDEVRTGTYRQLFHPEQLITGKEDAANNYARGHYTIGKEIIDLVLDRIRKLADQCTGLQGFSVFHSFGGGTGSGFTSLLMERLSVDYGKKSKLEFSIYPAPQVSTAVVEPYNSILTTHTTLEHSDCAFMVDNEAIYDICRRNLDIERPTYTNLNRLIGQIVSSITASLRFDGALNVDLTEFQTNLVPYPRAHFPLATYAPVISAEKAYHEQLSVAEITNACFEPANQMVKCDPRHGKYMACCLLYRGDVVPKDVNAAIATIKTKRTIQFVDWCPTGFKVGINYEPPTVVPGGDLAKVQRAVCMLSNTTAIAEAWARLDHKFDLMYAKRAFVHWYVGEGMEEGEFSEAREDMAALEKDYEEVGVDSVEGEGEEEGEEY
T1 sequence (P01267 20-2769): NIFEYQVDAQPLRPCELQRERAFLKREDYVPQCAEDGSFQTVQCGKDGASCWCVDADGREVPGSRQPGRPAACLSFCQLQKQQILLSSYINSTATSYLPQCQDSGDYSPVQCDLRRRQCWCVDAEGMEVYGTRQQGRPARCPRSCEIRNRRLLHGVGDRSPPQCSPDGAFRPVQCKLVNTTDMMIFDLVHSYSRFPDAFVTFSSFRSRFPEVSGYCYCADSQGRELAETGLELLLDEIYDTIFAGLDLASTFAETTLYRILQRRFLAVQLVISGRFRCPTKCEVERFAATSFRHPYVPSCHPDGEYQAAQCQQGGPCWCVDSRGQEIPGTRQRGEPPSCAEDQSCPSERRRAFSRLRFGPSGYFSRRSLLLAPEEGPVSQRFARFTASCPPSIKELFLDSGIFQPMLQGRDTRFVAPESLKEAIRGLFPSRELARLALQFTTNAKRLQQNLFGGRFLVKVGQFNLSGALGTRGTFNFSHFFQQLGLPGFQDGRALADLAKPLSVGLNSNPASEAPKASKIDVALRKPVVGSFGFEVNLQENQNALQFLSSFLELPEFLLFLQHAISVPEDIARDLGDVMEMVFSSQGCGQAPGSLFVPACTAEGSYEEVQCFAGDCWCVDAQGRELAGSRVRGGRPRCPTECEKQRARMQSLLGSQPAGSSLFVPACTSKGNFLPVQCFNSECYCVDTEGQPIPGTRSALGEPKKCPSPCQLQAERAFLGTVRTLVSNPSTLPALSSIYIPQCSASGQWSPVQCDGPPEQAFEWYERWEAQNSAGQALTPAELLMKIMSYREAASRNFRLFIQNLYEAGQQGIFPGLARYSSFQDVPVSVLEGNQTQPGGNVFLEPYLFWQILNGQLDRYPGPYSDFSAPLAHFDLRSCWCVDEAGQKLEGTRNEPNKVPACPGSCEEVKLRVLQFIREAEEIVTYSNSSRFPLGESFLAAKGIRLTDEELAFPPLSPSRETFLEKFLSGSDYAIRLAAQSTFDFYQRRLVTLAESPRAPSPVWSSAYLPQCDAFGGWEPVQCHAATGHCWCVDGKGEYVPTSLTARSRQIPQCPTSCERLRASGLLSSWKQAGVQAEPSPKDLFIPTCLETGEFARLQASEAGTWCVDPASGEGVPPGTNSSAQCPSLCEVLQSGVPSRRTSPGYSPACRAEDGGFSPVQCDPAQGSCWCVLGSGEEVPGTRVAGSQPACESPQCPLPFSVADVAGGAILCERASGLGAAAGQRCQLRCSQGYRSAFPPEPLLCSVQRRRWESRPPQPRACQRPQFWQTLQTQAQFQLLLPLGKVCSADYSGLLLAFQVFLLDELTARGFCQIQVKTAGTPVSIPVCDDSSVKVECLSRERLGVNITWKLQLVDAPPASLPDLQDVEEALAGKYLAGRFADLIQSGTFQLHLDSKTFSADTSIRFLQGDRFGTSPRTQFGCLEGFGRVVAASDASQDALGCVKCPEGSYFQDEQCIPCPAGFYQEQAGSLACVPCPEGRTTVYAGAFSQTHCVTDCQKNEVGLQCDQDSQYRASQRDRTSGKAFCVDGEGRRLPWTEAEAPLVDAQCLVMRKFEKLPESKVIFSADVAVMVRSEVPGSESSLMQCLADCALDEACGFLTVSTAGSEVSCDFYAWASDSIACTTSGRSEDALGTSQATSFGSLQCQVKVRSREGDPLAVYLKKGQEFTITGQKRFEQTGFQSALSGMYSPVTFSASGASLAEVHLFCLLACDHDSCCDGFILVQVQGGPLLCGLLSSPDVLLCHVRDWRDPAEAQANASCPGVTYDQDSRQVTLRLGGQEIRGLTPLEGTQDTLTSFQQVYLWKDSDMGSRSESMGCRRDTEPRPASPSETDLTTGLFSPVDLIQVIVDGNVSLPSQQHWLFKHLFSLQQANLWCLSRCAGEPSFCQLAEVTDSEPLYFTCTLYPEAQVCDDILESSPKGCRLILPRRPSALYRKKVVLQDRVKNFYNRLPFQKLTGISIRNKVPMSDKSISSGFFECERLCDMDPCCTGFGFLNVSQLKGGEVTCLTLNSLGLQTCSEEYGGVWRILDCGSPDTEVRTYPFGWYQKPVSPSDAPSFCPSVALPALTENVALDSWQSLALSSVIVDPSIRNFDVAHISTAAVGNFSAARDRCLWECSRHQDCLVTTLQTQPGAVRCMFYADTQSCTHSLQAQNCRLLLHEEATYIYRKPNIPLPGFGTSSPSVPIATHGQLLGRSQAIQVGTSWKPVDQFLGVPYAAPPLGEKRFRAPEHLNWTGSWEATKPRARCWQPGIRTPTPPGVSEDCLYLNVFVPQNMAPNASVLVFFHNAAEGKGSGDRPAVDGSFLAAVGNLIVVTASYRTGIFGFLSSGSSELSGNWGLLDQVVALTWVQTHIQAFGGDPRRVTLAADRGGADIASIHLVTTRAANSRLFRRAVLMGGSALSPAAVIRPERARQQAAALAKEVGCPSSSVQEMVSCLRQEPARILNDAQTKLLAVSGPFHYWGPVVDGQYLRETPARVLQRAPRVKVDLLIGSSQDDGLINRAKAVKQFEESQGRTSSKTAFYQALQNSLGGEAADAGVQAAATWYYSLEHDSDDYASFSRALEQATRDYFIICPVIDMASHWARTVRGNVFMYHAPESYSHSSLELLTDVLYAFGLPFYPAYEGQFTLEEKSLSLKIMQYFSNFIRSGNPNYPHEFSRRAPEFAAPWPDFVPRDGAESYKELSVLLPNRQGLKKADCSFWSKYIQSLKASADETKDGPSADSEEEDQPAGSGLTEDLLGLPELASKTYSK

B1: single-chain Fv antibody fragment 18B7 (scFv, V domains shown)
VH: DVKLVESGGGLVKLGGSLKLSCVASGFTCSSYFMSWVRQTPEKRLELVAMINNNGDKTYYPDTVKGRFTISRDNAKNTLYLQMSSLKSEDTAMYYCARRDGTFGNHFDYWGQGTTLTVSS
VL: DVVMTQTPLSLPVSAGDQASISCRSSQSLCHSNGNTYLHWYLQKPGQSPKLLIYKVSNRFSGVPDKFSGSGSGTDFTLKISRVEAEDLGVYFCSQSTHVPWTFGGGTKLEIK
notes: VL of mAb 18B7; 15-residue linker, printed as (GGS)5 in the methods; the results call it (Gly4Ser)3; VH of mAb 18B7; A pelB leader was appended to the N-terminus; The tandem FLAG and His6 tags are at the C-terminus; also called scFv 18B7; scFv; source: E. coli BL21 STAR (pET22b+); also soluble in the periplasm; not shown: His6, C-terminal, kept
binds: all assays above
